In paper PMC9962951, “Olive Polyphenol Oxidase Gene Family” (International Journal of Molecular Sciences, 2023):

How the values were obtained:
[1] = substrate: NCCc1ccc(O)cc1; assay: purified protein; type: biochemical, Olea europaea; settings: monophenolase, pH 6.8, 25 °C, substrate range 0.2–7 mM
[2] = substrate: CC(C)(C)c1ccc(O)c(O)c1; assay: purified protein; type: biochemical, Olea europaea; settings: diphenolase, 50 mM sodium phosphate pH 6.8, 1 mM SDS, 25 °C, substrate range 0.2–7 mM

B1: OePPO3 (Olea europaea subsp. europaea) (protein)
chain: APISAPDVTTCGPADLPQGAAPTNCCPPPTGEILDFKFPPPPTTMRVRPAAHLADEAYIAKFNRAVELMRALPDDDPRSFRQQANVHCAYCDGAYDQVGFPNLELQVHNSWLFFPFHRYYLYFFERILGNLIDDPTFAMPFWNYDAPGGMHLPAIYANQNSSLYDPLRDSAHQPPAFIDLNFSGSDANTGEAQQTSRNLTIMYRQMVSNSKTPRLFFGSPYRRGEDPNPGSGSIENIPHGPVHVWTGDRTQPNFENMGNFYSAGRDPIFFAHHSNIDRMWTLWKTLGGRRQDITDPDFLDASFVFYDENAKMVRVKVRDCLDHTKLGYVYQDVEVPWLRSRPKPRISSVVRKLKKLVRANAADIPSPKDIFPAKLDQVIKVMVKRPKKKRSKKEKDELEEILIIQGIELERDVYAKFDVFINDEDDEESTPENTEFAGSFVNVPHKHKNDKKIKTNLRLSITDILEDLDAEDDQHVLVTLVPKNFGDAITVHGIKIELDD
notes: GST tag cut off with PreScission (pGEX6P.1); E. coli BL21(DE3); about 54 kDa
With B1 as the protein, how does the Km [1] read?
The Km was 0.7 mM.

What about the Vmax [1] of the same protein?
Its Vmax is 2.7 µmol/min/mg.

What about the Km [2] of the same protein?
Its Km is 0.8 mM.

What about the Vmax [2] of the same protein?
The Vmax was 130 µmol/min/mg.
